Test results as given in the RNAGym collection of RNA variant scans (doi:10.1073/pnas.2313332121).

B1: TPR t1 (parent)
chain: GACCAAUCUGCCCUCAGAGCUCGAGAACAUCUUCGGAUGCAGAGGAGGCAGGCUUCGGUGGCGCGAUAGCGCCAACGUCCUCAACCUCCAAUGCAUCCCACCACAUGAUGAUGCCUGAAGAGCCUUGGUUUUUUG

Variants of: B1
Assay: polymerase ribozyme fitness, log enrichment relative to wild type (log ratio); higher = more active; in vitro selection for triplet polymerase activity
Method in brief: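 Each subunit of a heterodimeric triplet polymerase ribozyme was mutagenized into a library by PCR, transcribed, and subjected to one round of in vitro selection, run in triplicate. Libraries were annealed with a biotinylated primer, the partner subunit and triplets, incubated frozen at −7 °C, and extended constructs were gel-excised, captured on streptavidin beads and recovered by RT-PCR. Input and output libraries were sequenced on Illumina, keeping genotypes with ≥10 input reads and ≥1 read per output. Fitness is log base 2 of genotype enrichment divided by wild-type enrichment, from inverse-variance-weighted replicate averages.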

Point of comparison: A50C U55G G58C U81A C124A, “polymerase ribozyme fitness (log ratio)” value 1.51. Against it:
- C49U C86U C88G C115G — lower, -4.09
- C49U C102A — lower, -3.24
- C49G G93U — lower, -1.49
- C49G G93C — lower, -1.06
- C49U G77A C123G — lower, 1.03
- C49U G93A C97U U116C — lower, -3.84
- C49U G58U C62G A119U C124U — lower, -1.37
- C49U A95U U130G — lower, -1.71
- C49U A66G — lower, -1.95
- A50C G71A G77U G120C — lower, -1.85
- C49G G122A — lower, -0.99
- A50C C56G A105U G120C — lower, -2.11
- C49U G93A C101U G127C — lower, -2.96
- C49G G120A — lower, 0.175
- C49G G120C — lower, 1.11
- C49G C73A C85U C89A — lower, -2.43
- C49A G110A — lower, -1.34
- C49A G110U — lower, -1.73
- A50C G71U — lower, 0.242
- A50C C72G — lower, -0.555
- A50C C72U — lower, -0.602
- A50C C94U C123U — within 0.2 log units, 1.49
- C49U C115G — lower, -2.23
- C49U C115U — lower, -1.16
- C49G G58C C79A — lower, -5.19
- A50G C56U G69C C123G C124G — lower, -5.93
- C49A G113C — lower, -2.05
- C49G C56G C88U G120C G127A — lower, -2.45
- C49U C56A — lower, -1
- A50C A121U — higher, 2.16
- C49G C85A U112G A121G C124U — lower, -0.43
- A50C C53G C73A U126G — lower, -2.99
- C49A U55G U125A G127A — lower, -1.79
- C49U C72G — lower, -0.927
- C49U U116G — lower, -2.41
- C49G G57U A83U G110A A121G — lower, -1.99
- A50G C62U U87A — lower, -0.164
- C49U C53A — lower, -0.289
- C49U A50C G69A G135U — lower, -3.24
- C49U C70A — lower, -2.47
- A50C G69U — lower, -0.0602
- C49A U54A G77U — lower, -0.966
- C49U C70U U130C — lower, -0.66
- C49U C72G G113U G117U — lower, -6.76
- C49G C62A G93U C104A G113U U116A — lower, -7.29
- C49G A91U C115A G128C U131A — lower, -6.98
- C49U A119U G122U — lower, -1.11
- C49U U126A — lower, -1.95
- C49G U78G — lower, -0.998
- C49U A68G — lower, -4.08
- A50C G71U U87A — lower, -1.95
- C49A U78A G120C — lower, 0.377
- C49G C73G — lower, -1.7
- C49G U92A C123G — lower, -3.27
- C49U G51A G63C — lower, -3
- C49U G57U G110C — lower, -4.9
- A50G C56A — lower, -0.266
- C49U A84C — lower, -1.9
- C49G G51A G61C C94U — lower, -3.22
- C49U G63A U92G A121G — lower, -3.84
- C49G A50U C72U — lower, -1.85
- C49U U81G — lower, -3.78
- C49G G63C A111G G120A — lower, -2.1
- A50C C82A — lower, -0.499
- C49G G52U C56G C72G — lower, -7.2
- C49U U109G — lower, -5.61
- C49U C56A C70U C76A U132A — lower, -3.06
- C49A G107U — lower, -4.61
- C49G A50U — lower, -1.05
- C49U G63C C85U — lower, -1.05
- C49U U106A — lower, -0.703
- C49U A119U — lower, -0.961
- A50C G61C G127A — lower, -5.03
- C49G G77U A95G — lower, -1.23
- A50G C62A — lower, -0.949
- C49U G63U — lower, -2
- C49U G51U U78G C79G U109G C124G — lower, -6.06
- C49U G51U C62U C80A — lower, -3.6
- C49U G113U C114U — lower, -2.07
- C49G G122U C124G — lower, -1.12
- C49U A95C — lower, -1
- C49U G52A C56G — lower, -2.31
- C49G G60U U96G — lower, -0.746
- C49U U54C G117U G128A — lower, -5.68
- A50G C53G G61A C64U U116A G117A — lower, -4.58
- C49U A95G U112A — lower, 0.0263
- C49G C64G G120U C124A G135U — lower, -7.53
- C49U G107A — lower, -3.94
- C49U U106A U116G — lower, -4.54
- C49U G77C C124G U125C — lower, -0.664
- C49U U78G U96A G113A C115A — lower, -5.23
- C49G C72A C79U G93U — lower, -1.3
- A50C G63U U81G G128C — lower, -4.28
- A50C G120A — lower, 0.456
- A50C G120C — lower, 0.605
- C49U G52C U55C — lower, -1.55
- C49U U59G — lower, -1.24
- A50G C53A C72A — lower, -0.193
- C49U C73A A74U C102U — lower, -3.4
- C49G U78C A95C — lower, -2.13
- C49U G57A U96A — lower, -3.31
- C49G A91U — lower, -2.92
- C49A G71U C89A U130C — lower, -2.94
- C49A G71A — lower, -0.646
- A50G C53G G60U C72U C101A G117A — lower, -4.06
- C49U U132C — lower, -0.889
- C49G U81C — lower, -3.21
- C49G G69C U125G — lower, -3.42
- C49U G52C G63U C124A — lower, -0.717
- A50G A84C C114G — lower, -2.83
- A50C G110U — lower, -1.99
- C49G C88A U96G U125G — lower, -2.28
- A50G C72G — lower, -0.204
- C49A U78G U96G — lower, -0.964
- A50G C53A C73U — lower, 0.0786
- C49A U54A G60U U81A G128U — lower, -2
- C49U C56A G120C — lower, 0.0733
- A50C G61C — lower, -3.35
- C49U U131A — lower, -0.481
- A50C G61U C79G — lower, -2.93
- C49G C62G A75G C79U — lower, -3.47
- C49U C73U A74U — lower, -0.941
- C49U G93A G122A — lower, -1.37
- C49G U116G — lower, -2.61
- C49A U96C — lower, -0.589
- C49A U96A — lower, -1.29
- A50C G52C C73U — lower, -4.07
- C49U C53A C101A G120A — lower, -1.13
- C49U G63C G93C C124U — lower, -0.998
- C49U G113C — lower, -3.45
- C49U G58C G60U C114U U129A — lower, -5.08
- C49U C80U C114U G122U — lower, -5.64
- C49G G110A A121C — lower, -1.76
- A50C U87A — lower, -0.514
- C49A G120U — lower, -0.22
- C49U U55A C62U C99U A111U — lower, -7.19
- C49A U78A U129G — lower, -1.45
- C49U C114U — lower, -2.25
- C49U C114A — lower, -2.34
- C49U C114G — lower, -3.71
- C49A G93U U112G — lower, -1.59
- A50C G63U U81A U129A — lower, -2.04
- C49U C72U A75U U106G — lower, -3.16
- C49G C124A — within 0.2 log units, 1.39
- C49G A90U G113U — lower, -3.57
- C49U G58C A111C — lower, -0.939
- C49U C101G — lower, -2.04
- A50G C70U C72G — lower, -3.42
- C49G C72A — lower, -0.887
- A50C C101A — lower, -1.83
- A50G C53G G60U C72U C101A — lower, -3.8
- C49U G77U G113U G122U C124A — lower, -3.66
- A50C C72G U87G G120C U131A — lower, 0.442
- C49U C124A — lower, 1.2
- C49A U54A C73U U112C — lower, 1.26
- A50G C53U U129C U130G — lower, -0.774
- C49G C99A G120C G122U — lower, -6.79
- C49G A100C C101U — lower, -1.62
- C49G G57C G58C G63U — lower, -3.06
- C49U C73U U81G U96C — lower, -4.51
- C49U C82G U96C C97U C115U U116A — lower, -6.51
- A50G C62U C82A A121U — higher, 1.97
- C49G C101U U131C — lower, -0.189
- C49A G127U — lower, -1.02
- A50G C70U A111U — lower, -4.72
- C49U U96A U106A — lower, -1.67
